B1: Exocyst complex component SEC3 (Saccharomyces cerevisiae), P33332 (parent)
chain: MRSSKSPFKRKSHSRETSHDENTSFFHKRTISGSSAHHSRNVSQGAVPSSAPPVSGGNYSHKRNVSRASNSSQTSNFLAEQYERDRKAIINCCFSRPDHKTGEPPNNYITHVRIIEDSKFPSSRPPPDSKLENKKKRLLILSAKPNNAKLIQIHKARENSDGSFQIGRTWQLTELVRVEKDLEISEGFILTMSKKYYWETNSAKERTVFIKSLITLYIQTFEGHVPELVNWDLSLFYLDERSYQRAVITNRPGSVSPIKSPTSNFTTNTTQSVGSVPFSAPTERTRRSETESVNPVSTPASVEYHAGMKSLNKAPYSSNSTLNEVNKRYELEQQQQQEEAELRRLEEQKRLQLQKENEMKRLEEERRIKQEERKRQMELEHQRQLEEEERKRQMELEAKKQMELKRQRQFEEEQRLKKERELLEIQRKQREQETAERLKKEEQEALAKKEEEEKSKRNKVDNESYTQEINGKVDNLLEDLNAVLAEETETTPTMQNGTYVPERSTARAHDQLKKPLNIAKVESLGGSDLNDSISLSDEIAGLNTSNLSGEDQDEKNDLSFEKGDEVRYSNNFEGEAPHVYHEVSIIQEEAPAVSQKLILPEENNESEALIESKEEIKTMENIDDEVLLEILTDINWSIEDDADSMIERIDLRLAETEYLFNQNLLSLQKIGPNIRPYEDKVNDECHRIIPTLSLFLMEMSNFSNDIENVESQDNGLQVESANKKLLWNTLDELLKTVSLDEISLNQLLECPIREKNLPWMENQLNLLLKAFQAIGSDGNEVEYNLREISGLKQRLQFYEKVTKIFLNRIVEEMQKKFSNIRGQDISHDQMIRILTTLLIFSPLILFCKEISQKSYQAIVENWNVSIQPVYMELWTKKISQLQGIDTNDEKMNELSLSQLLNEWDTFRKERKTNDINPVFKNSFSLLTECLQTMRQECIVYQNFVEVFFHISSKHNFEEYIKHFNDPDAPPILLDTVKVMQSDREAAVIETQLVSRIFQPIVTRLSSYFVELVKAEPTVAPALTFYLENEIKSLESSNHEFLLSAVTRMYTQIKQVWSDNVEEQVLHFERISNATTNGEILPGILDLPVGLKNSEDLFQFAKRSMDIKDTDEGYESIELMNSSFRKLSIAATRSITHKEVNSSINPNLSDTAALNNDYMETISLLVNSNWLTEMLSMLNFNKDGIFDTSLQNVKKVFDVEKESYASFLLRDTMPKLTAFVYGVSNIIENTNNVNMTNPSRWAAYSRQNLENILLAYTSHEIETLVKRLHTHMVNDFGYHQENAINNVLCDKLWSCIQGQTVSLYLKLYTVIDKHYRGTNIRFTKNDIISAFEEYKNA

Variants of: B1
Details: with rho1_yeast RHO1, P06780
Chain of rho1_yeast RHO1, P06780 (P06780 whole entry): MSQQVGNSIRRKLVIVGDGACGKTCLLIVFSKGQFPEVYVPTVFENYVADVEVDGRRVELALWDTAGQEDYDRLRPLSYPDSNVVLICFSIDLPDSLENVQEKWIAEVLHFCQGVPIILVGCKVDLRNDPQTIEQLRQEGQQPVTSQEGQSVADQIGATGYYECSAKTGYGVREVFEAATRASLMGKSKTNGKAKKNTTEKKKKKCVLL

Variant | effect of a mutation on the interaction
K136A | disrupting interaction
E199A | disrupting interaction
L131A | disrupting interaction
